Measurements reported in paper PMC12218921, “An adaptive peptide-binding site in ubiquitin receptor hRpn13 revealed by structural studies” (Nature Communications, 2025).

Target: T1, hRpn13_ΔMTT (Homo sapiens, UniProt Q16186)
T1 construct: recombinant plasmid of hRpn13 Pru (1–150) cloned into the pRSET vector; GST (N, cleaved yes); residual Gly-Ser (^cG-^dS) left after cleavage; made in house; host or cells: Escherichia coli BL21 (DE3); pGEX-4T-1 plasmid synthesized by GenScript (Addgene 237412)
T1 sequence (Q16186 4-150, stated change not applied): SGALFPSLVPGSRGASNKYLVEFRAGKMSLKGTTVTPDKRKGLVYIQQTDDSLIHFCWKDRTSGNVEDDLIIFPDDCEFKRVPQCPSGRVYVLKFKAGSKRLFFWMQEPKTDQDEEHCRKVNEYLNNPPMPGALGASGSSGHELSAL
Assay: 1H-15N HSQC NMR, K48-diUb constructs with hRpn13_ΔMTT
Type: binding
Procedure: To test further whether peptide binding can influence hRpn13 Pru interaction with ubiquitin, we generated K48-linked diubiquitin in which the distal moiety (linked via G76) is extended by a 6-residue linker sequence of GSGGSG followed by either the ENT (K48-diUb^ENT) or EDGEGEE (K48-diUb^EDGEGEE) sequence. Varying concentrations of K48-diUb^ENT, K48-diUb^EDGEGEE, or K48-diUb^D77 were added to 100 μM ^15N-labeled hRpn13_ΔMTT and effects on hRpn13 monitored by recording ^1H-^15N HSQC spectra.
K48-diUb samples were produced by using a similar method as previously described. Briefly, Ub-D77 (proximal), Ub-ENT (proximal), Ub-EDGEGEE (proximal) and Ub-K48R (distal) were added at a final concentration of 0.8 mM to a reaction buffer (50 mM Tris pH 8.0, 5 mM MgCl2, 10 mM creatine phosphate, 0.6 U/mL inorg. PPase, 0.6 U/mL creatine kinase, 2 mM ATP) preincubated with 20 μM E2-25K. 0.1 μM E1 (R&D Systems) was added to this reaction system to initiate diUb synthesis, and it was left for 18 h at 37 °C. The reaction was quenched by dilution with 4 volumes of 50 mM sodium acetate (pH 4.5) and passed over a Mono S 5/50 GL column (GE Healthcare). Further purification was achieved by SEC on a HiLoad 16/600 Superdex 75 prep grade column (GE Healthcare) in buffer C.
All ^1H-^15N HSQC experiments were acquired on samples dissolved in NMR buffer (20 mM sodium phosphate, pH 6.5, 50 mM NaCl, 1 mM TCEP, 10% D2O) unless specified, in which case 2 mM DTT replaced TCEP. The samples were purified in DTT-containing buffer and then exchanged into NMR buffer by using Zeba Protein Desalting columns (Thermo Fisher Scientific). The pH was measured and adjusted to 6.5. All NMR experiments were performed at 25 °C on a Bruker Advance 600 MHz spectrometer equipped with a cryogenically cooled probe. The data were processed by NMRpipe[46] (version 11.5) and spectra visualized and analyzed with NMR-FAM-SPARKY[47] (version 3.190) by using previous chemical shift assignments[12],[23] and NMRbox[48]. The amide nitrogen and hydrogen chemical shift perturbations (CSP) were mapped for each amino acid according to Eq. 1.1 CSP=0.2ΔδN2+ΔδH2
Supplementary Figure 13: NMR experiments of hRpn13 Pru binding to K48-diUb^EDGEGEE, K48-diUb^ENT or K48-diUb^D77. a) ^1H-^15N HSQC spectrum of 0.1 mM ^15N-labeled hRpn13_ΔMTT alone (black) or with equimolar K48-diUb^EDGEGEE (blue), K48-diUb^ENT (red) or K48-diUb^D77 (green). Select residues are labeled. The spectra were acquired on a 600 MHz spectrometer equipped with a cryogenically cooled probe and at 25°C samples with samples dissolved in 20 mM sodium phosphate, pH 6.5, 100 mM NaCl, 1 mM TCEP, 10% D2O.

K48-diUb^EDGEGEE: K48-linked diubiquitin extended by linker GSGGSG followed by EDGEGEE
bound state hRpn13 F76 signal (100 μM 15N-hRpn13_ΔMTT): A bound state hRpn13 signal was only observed for K48-diUb^EDGEGEE | strength of complex with hRpn13 (HSQC) (100 μM 15N-hRpn13_ΔMTT): stronger complex with hRpn13 compared to K48-diUb^ENT or K48-diUb^D77 | ubiquitin contact surface binding (HSQC) (100 μM 15N-hRpn13_ΔMTT, varying K48-diUb concentrations): binding to ubiquitin was observed | hRpn13 D78, A100, and G101 signal shifting compared to K48-diUb^D77 (sub-stoichiometric K48-diUb concentrations): more pronounced shifting at sub-stoichiometric concentrations
